The values below come from PMC7432852, “2-Ketoglutarate-Generated In Vitro Enzymatic Biosystem Facilitates Fe(II)/2-Ketoglutarate-Dependent Dioxygenase-Mediated C–H Bond Oxidation for (2S,3R,4S)-4-Hydroxyisoleucine Synthesis” (International Journal of Molecular Sciences, 2020).

The test system of series [1] is LGOX (L-glutamate oxidase). The conditions noted are these: 50 mM Tris-HCl pH 7.0, 30 °C; L-Glu 0.5–20 mM. From the text:
initial rate of 2-KG formation by HPLC, catalase present, Michaelis-Menten fit on LGOX (L-glutamate oxidase)

Substrate in series [2]: CC[C@H](C)[C@H](N)C(=O)O
Kind of series: initial rate of 4-HIL formation by HPLC, Michaelis-Menten fit. Format: biochemical, Bacillus thuringiensis. The conditions noted are these: 50 mM Tris-HCl pH 7.0, 30 °C, co-substrate 2-KG, FeSO4, L-ascorbic acid, L-Ile 0.5–20 mM. From the text: (§1) initial rate of 4-HIL formation by HPLC, Michaelis-Menten fit on IDO (L-Ile dioxygenase)

Substrate in series [3]: O=C(O)CCC(=O)C(=O)O
The description is as above. Format: biochemical, Bacillus thuringiensis. The conditions noted are these: 50 mM Tris-HCl pH 7.0, 30 °C, co-substrate L-Ile, FeSO4, L-ascorbic acid, 2-KG 1–40 mM.
Text: as §1

As a reminder, the Km is the substrate concentration at which the rate is half of its maximum. In the case of `N[C@@H](CCC(=O)O)C(=O)O` [L-Glu], in series [1], the Km was 2.65 ± 0.11 mM.

B1: IDO (L-Ile dioxygenase) (Bacillus thuringiensis) (protein)
chain: MKMSGFSIEEKVHEFESKGFLEISNEIFLQEEENHSLLTQAQLDYYNLEDDAYGECRARSYSRYIKYVDSPDYILDNSNDYFQSKEYNYDDGGKVRQFNSINDSFLCNPLIQNIVRFDTEFAFKTNIIDKSKDLIIGLHQVRYKATKERPSFSSPIWLHKDDEPVVFLHLMNLSNTAIGGDNLIANSPREINQFISLKEPLETLVFGQKVFHAVTPLGTECSTEAFRDILLVTFSYKETK
The term Vmax denotes the top rate of the reaction or transport when substrate is in excess. Broadly, the kcat is the number of substrate molecules converted per active site and unit of time at saturation. Consider B1, for which, in series [2], the Km came to 6.34 ± 0.12 mM, the Vmax turned out to be 8.99 µmol/min/mg and the kcat stood at 4.18 ± 0.08 s⁻¹. Further, in series [3], the Km stood at 15.12 ± 0.08 mM, the Vmax is 19.8 µmol/min/mg and the kcat was 9.18 ± 0.07 s⁻¹.
